# Source: IntAct's records for PubMed 20190753
# B1: Vacuolar protein sorting-associated protein 33B (Homo sapiens), Q9H267 (parent)
# chain: MAFPHRPDAPELPDFSMLKRLARDQLIYLLEQLPGKKDLFIEADLMSPLDRIANVSILKQHEVDKLYKVENKPALSSNEQLCFLVRPRIKNMRYIASLVNADKLAGRTRKYKVIFSPQKFYACEMVLEEEGIYGDVSCDEWAFSLLPLDVDLLSMELPEFFRDYFLEGDQRWINTVAQALHLLSTLYGPFPNCYGIGRCAKMAYELWRNLEEEEDGETKGRRPEIGHIFLLDRDVDFVTALCSQVVYEGLVDDTFRIKCGSVDFGPEVTSSDKSLKVLLNAEDKVFNEIRNEHFSNVFGFLSQKARNLQAQYDRRRGMDIKQMKNFVSQELKGLKQEHRLLSLHIGACESIMKKKTKQDFQELIKTEHALLEGFNIRESTSYIEEHIDRQVSPIESLRLMCLLSITENGLIPKDYRSLKTQYLQSYGPEHLLTFSNLRRAGLLTEQAPGDTLTAVESKVSKLVTDKAAGKITDAFSSLAKRSNFRAISKKLNLIPRVDGEYDLKVPRDMAYVFGGAYVPLSCRIIEQVLERRSWQGLDEVVRLLNCSDFAFTDMTKEDKASSESLRLILVVFLGGCTFSEISALRFLGREKGYRFIFLTTAVTNSARLMEAMSEVKA
# partner: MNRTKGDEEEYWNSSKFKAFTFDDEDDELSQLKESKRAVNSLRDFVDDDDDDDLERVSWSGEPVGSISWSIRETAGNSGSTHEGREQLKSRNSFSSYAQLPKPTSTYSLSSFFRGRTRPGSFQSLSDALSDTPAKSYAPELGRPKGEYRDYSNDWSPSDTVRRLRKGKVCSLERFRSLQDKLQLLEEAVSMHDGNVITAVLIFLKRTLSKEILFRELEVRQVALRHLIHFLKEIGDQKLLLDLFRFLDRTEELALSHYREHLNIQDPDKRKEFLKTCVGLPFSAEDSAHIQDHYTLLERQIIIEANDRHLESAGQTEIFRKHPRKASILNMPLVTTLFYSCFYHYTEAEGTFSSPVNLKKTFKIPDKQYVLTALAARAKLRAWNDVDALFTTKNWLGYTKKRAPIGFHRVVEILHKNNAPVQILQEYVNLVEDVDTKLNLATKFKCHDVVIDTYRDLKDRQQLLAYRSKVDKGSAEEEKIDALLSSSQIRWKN
# Variants of: B1
# Conditions: with spe39_human VIPAS39, Q9H9C1
row,effect of a mutation on the interaction,Variant
1,decreasing interaction,L30P
